The target in the assay is T1, KcsA (S. lividans), P0A334.
T1 chain: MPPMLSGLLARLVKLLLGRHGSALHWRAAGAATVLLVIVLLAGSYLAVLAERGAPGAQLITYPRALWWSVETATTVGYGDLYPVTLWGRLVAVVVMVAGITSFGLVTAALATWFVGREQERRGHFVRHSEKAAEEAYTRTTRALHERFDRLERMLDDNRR
Nature of the assay: SDS-PAGE. To be noted: remark: other sources report otherwise.

The values that follow come from article PMC2937177.

B1: KcsA, P0A334 1-160 (natural protein)
chain: T1 chain
As usually defined, the stoichiometry N is a count of units in the complex or per binding partner. The molecule B1 gave a stoichiometry N of 4.
